Measured values taken from US20240117018A1.

Key:
Test in all cases: cell-based or functional assay
[1] = biological target: HIV-1 Env of pseudovirus 620345.c01 (HIV-1)
[2] = biological target: HIV-1 Env of pseudovirus 89-F1_2_25 (HIV-1)
[3] = biological target: HIV-1 Env of pseudovirus 263-8 (HIV-1)
[4] = biological target: HIV-1 Env of pseudovirus 6545.v4.c1 (HIV-1)
[5] = biological target: HIV-1 Env of pseudovirus 3301.v1.c24 (HIV-1)
[6] = biological target: HIV-1 Env of pseudovirus X1193_c1 (HIV-1)
[7] = biological target: HIV-1 Env of pseudovirus 3016.v5.c45 (HIV-1)
[8] = biological target: HIV-1 Env of pseudovirus T251-18 (HIV-1)
[9] = biological target: HIV-1 Env of pseudovirus T255-34 (HIV-1)
[10] = biological target: HIV-1 Env of pseudovirus 0815.v3.c3 (HIV-1)
[11] = biological target: HIV-1 Env of pseudovirus C4118.c09 (HIV-1)
[12] = biological target: HIV-1 Env of pseudovirus C1080.c03 (HIV-1)
[13] = biological target: HIV-1 Env of pseudovirus BJOX025000.01.1 (HIV-1)
[14] = biological target: HIV-1 Env of pseudovirus X2131_C1_B5 (HIV-1)
[15] = biological target: HIV-1 Env of pseudovirus P1981_C5_3 (HIV-1)
[16] = biological target: HIV-1 Env of pseudovirus A07412M1.vrc12 (HIV-1)
[17] = biological target: HIV-1 Env of pseudovirus 9004SS_A3_4 (HIV-1)
[18] = biological target: HIV-1 Env of pseudovirus X1254_c3 (HIV-1)
[19] = biological target: HIV-1 Env of pseudovirus 191084 B7-19 (HIV-1)
[20] = biological target: HIV-1 Env of pseudovirus 231966.c02 (HIV-1)
[21] = biological target: HIV-1 Env of pseudovirus BJOX015000.11.5 (HIV-1)
[22] = biological target: HIV-1 Env of pseudovirus R1166.c01 (HIV-1)
[23] = biological target: HIV-1 Env of pseudovirus BJOX010000.06.2 (HIV-1)
[24] = biological target: HIV-1 Env of pseudovirus 6540.v4.c1 (HIV-1)
[25] = biological target: HIV-1 Env of pseudovirus 191955_A11 (HIV-1)
[26] = biological target: HIV-1 Env of pseudovirus 6480.v4.c25 (HIV-1)
[27] = biological target: HIV-1 Env of pseudovirus BJOX028000.10.3 (HIV-1)
[28] = biological target: HIV-1 Env of pseudovirus 928-28 (HIV-1)
[29] = biological target: HIV-1 Env of pseudovirus 211-9 (HIV-1)
[30] = biological target: HIV-1 Env of pseudovirus X1632_S2_B10 (HIV-1)
[31] = biological target: HIV-1 Env of pseudovirus 6811.v7.c18 (HIV-1)
[32] = biological target: HIV-1 Env of pseudovirus R2184.c04 (HIV-1)
[33] = biological target: HIV-1 Env of pseudovirus R3265.c06 (HIV-1)
[34] = biological target: HIV-1 Env of pseudovirus 235-47 (HIV-1)
[35] = biological target: HIV-1 Env of pseudovirus 3817.v2.c59 (HIV-1)
[36] = biological target: HIV-1 Env of pseudovirus P0402_c2_11 (HIV-1)

N49P19 (antibody)
neutralization IC50 [1]: > 50 µg/mL | neutralization IC80 [1]: > 50 µg/mL | neutralization MPI [1]: 0 | neutralization IC50 [2]: > 50 µg/mL | neutralization IC80 [2]: > 50 µg/mL | neutralization MPI [2]: 7 | neutralization IC50 [3]: 0.344 µg/mL | neutralization IC80 [3]: 1.51 µg/mL | neutralization MPI [3]: 99 | neutralization IC50 [4]: > 50 µg/mL | neutralization IC80 [4]: > 50 µg/mL | neutralization MPI [4]: 2 | neutralization IC50 [5]: 0.302 µg/mL | neutralization IC80 [5]: 1.42 µg/mL | neutralization MPI [5]: 98 | neutralization IC50 [6]: 0.54 µg/mL | neutralization IC80 [6]: 3.15 µg/mL | neutralization MPI [6]: 99 | neutralization IC50 [7]: > 50 µg/mL | neutralization IC80 [7]: > 50 µg/mL | neutralization MPI [7]: 9 | neutralization IC50 [8]: 0.938 µg/mL | neutralization IC80 [8]: 4.2 µg/mL | neutralization MPI [8]: 100 | neutralization IC50 [9]: 0.948 µg/mL | neutralization IC80 [9]: 6.22 µg/mL | neutralization MPI [9]: 97 | neutralization IC50 [10]: 0.176 µg/mL | neutralization IC80 [10]: 0.743 µg/mL | neutralization MPI [10]: 100 | neutralization IC50 [11]: 0.386 µg/mL | neutralization IC80 [11]: 1.36 µg/mL | neutralization MPI [11]: 100 | neutralization IC50 [12]: 0.682 µg/mL | neutralization IC80 [12]: 3.05 µg/mL | neutralization MPI [12]: 100 | neutralization IC50 [13]: > 50 µg/mL | neutralization IC80 [13]: > 50 µg/mL | neutralization MPI [13]: 24 | neutralization IC50 [14]: 2.52 µg/mL | neutralization IC80 [14]: 14.4 µg/mL | neutralization MPI [14]: 91 | neutralization IC50 [15]: 20.2 µg/mL | neutralization IC80 [15]: > 50 µg/mL | neutralization MPI [15]: 68 | neutralization IC50 [16]: 3.89 µg/mL | neutralization IC80 [16]: 48.8 µg/mL | neutralization MPI [16]: 80 | neutralization IC50 [17]: 0.661 µg/mL | neutralization IC80 [17]: 3.09 µg/mL | neutralization MPI [17]: 100 | neutralization IC50 [18]: > 50 µg/mL | neutralization IC80 [18]: > 50 µg/mL | neutralization MPI [18]: 48 | neutralization IC50 [19]: 0.357 µg/mL | neutralization IC80 [19]: 1.34 µg/mL | neutralization MPI [19]: 100 | neutralization IC50 [20]: 0.653 µg/mL | neutralization IC80 [20]: 4.55 µg/mL | neutralization MPI [20]: 100 | neutralization IC50 [21]: 0.756 µg/mL | neutralization IC80 [21]: 3.17 µg/mL | neutralization MPI [21]: 99 | neutralization IC50 [22]: 0.629 µg/mL | neutralization IC80 [22]: 2.69 µg/mL | neutralization MPI [22]: 100 | neutralization IC50 [23]: 4.16 µg/mL | neutralization IC80 [23]: 19.1 µg/mL | neutralization MPI [23]: 96 | neutralization IC50 [24]: 11.2 µg/mL | neutralization IC80 [24]: > 50 µg/mL | neutralization MPI [24]: 63 | neutralization IC50 [25]: > 50 µg/mL | neutralization IC80 [25]: > 50 µg/mL | neutralization MPI [25]: 16 | neutralization IC50 [26]: 3.04 µg/mL | neutralization IC80 [26]: 28.2 µg/mL | neutralization MPI [26]: 87 | neutralization IC50 [27]: 7 µg/mL | neutralization IC80 [27]: > 50 µg/mL | neutralization MPI [27]: 80 | neutralization IC50 [28]: 2.73 µg/mL | neutralization IC80 [28]: 9.63 µg/mL | neutralization MPI [28]: 97 | neutralization IC50 [29]: 3.23 µg/mL | neutralization IC80 [29]: 19 µg/mL | neutralization MPI [29]: 93 | neutralization IC50 [30]: > 50 µg/mL | neutralization IC80 [30]: > 50 µg/mL | neutralization MPI [30]: 14 | neutralization IC50 [31]: 1.3 µg/mL | neutralization IC80 [31]: 4.71 µg/mL | neutralization MPI [31]: 97 | neutralization IC50 [32]: 0.132 µg/mL | neutralization IC80 [32]: 0.445 µg/mL | neutralization MPI [32]: 100 | neutralization IC50 [33]: 0.634 µg/mL | neutralization IC80 [33]: 2.73 µg/mL | neutralization MPI [33]: 100 | neutralization IC50 [34]: 0.44 µg/mL | neutralization IC80 [34]: 3.23 µg/mL | neutralization MPI [34]: 89 | neutralization IC50 [35]: > 50 µg/mL | neutralization IC80 [35]: > 50 µg/mL | neutralization MPI [35]: 26 | neutralization IC50 [36]: 0.448 µg/mL | neutralization IC80 [36]: 2.63 µg/mL | neutralization MPI [36]: 100
